Reference: patent US20040214992A1, “Mutation induced optimization of receptor signal to noise ratio” (priority 2001, published 2004)
Substitutions are numbered along the chain they refer to. One block for each molecule: values may come before it.

Tests used:
CCR-3 receptor [1] = biological target: T1, CCR-3 receptor (Homo sapiens, UniProt P51677, Y235E); assay: SRE-Luc + Gq5i luciferase reporter assay, wild-type or mutant CCR-3 receptor; assay type: cell-based; conditions: basal activity of mutant vs wild-type
T1 construct: expressed in transfected cells; host or cells: HEK293 (inferred: assay 'as described above for the serotonin 2A receptor')
T1 sequence (P51677 1-355 Y235E): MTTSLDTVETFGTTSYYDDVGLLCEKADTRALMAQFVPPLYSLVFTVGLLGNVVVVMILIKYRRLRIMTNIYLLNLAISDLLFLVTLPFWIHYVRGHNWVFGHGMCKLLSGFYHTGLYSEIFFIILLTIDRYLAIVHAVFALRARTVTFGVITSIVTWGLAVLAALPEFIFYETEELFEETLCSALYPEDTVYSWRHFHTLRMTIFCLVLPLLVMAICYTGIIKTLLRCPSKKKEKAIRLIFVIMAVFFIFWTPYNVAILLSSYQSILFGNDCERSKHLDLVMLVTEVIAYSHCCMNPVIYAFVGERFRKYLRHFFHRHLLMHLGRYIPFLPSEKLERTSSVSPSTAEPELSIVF
Text: (§1) Alternatively, Gαi coupling can also be measured using a positive assay (i.e., one that yields an increase in activity upon receptor activation), instead of a negative assay (i.e., one that yields a decrease in activity upon receptor activation). This assay provides a more detectable output signal and less interassay variation. In one such assay, a chimeric G protein (Gq5i, Broach and Thomer, Nature 384 (Suppl.):14-16 (1996)) that contains the entire Gαq protein having the five C-terminal amino acids from Gαi attached to the C-terminus of Gαq is used. This chimeric G protein is recognized as Gαi by Gαi coupled receptors, but switches the receptor induced signaling from Gαi to Gαq. This allows Gαi receptor coupling to be detected using a positive assay by use of a Gαq responsive SMS-Luc or SRE-Luc construct (Stratagene, La Jolla, Calif.). SMS and SRE preferably respond to Gαq mediated inositol and calcium production. Moreover, detection can be carried out in the absence of forskolin pre-stimulation of cells.
(§2) The basal activity of the Tyr235Glu mutant CCR-3 receptor was assessed using a luciferase assay. The CCR-3 receptor is a Gαi coupled receptor. Therefore, we chose to use the SRE-Luc+Gq5i reporter system, described in detail above (Broach and Thorner, supra), which switches the signaling pathway from Gαi to Gαq for reliable positive readout. The luciferase assay was carried out as described above for the serotonin 2A receptor.

CCR-3 receptor [2] = assay: as above; assay type: cell-based, human; conditions: luciferase activity; for Ligand-stimulated Activity / Basal Activity: average of 5 experiments; for Basal Activity: no ligand
Text: as §1, §2

basal activity compared to wild-type receptor (in words) (CCR-3 receptor [1]): decrease in basal activity
Stimulated/Basal Ratio (CCR-3 receptor [2]): 12
Ligand-stimulated Activity (CCR-3 receptor [2]): 151,445
Basal Activity (CCR-3 receptor [2]): 12,626
B1: Lys323Glu CCR-3: silenced mutant CCR-3 receptor with Tyr to Glu substitution at position 235 of SEQ ID NO: 2 (protein, UniProt P51677 1-355, looked up, variant Y235E)
C-C chemokine receptor type 3: T1 sequence (P51677 1-355 Y235E)

Stimulated/Basal Ratio (CCR-3 receptor [2]): 4.7
Ligand-stimulated Activity (CCR-3 receptor [2]): 157,389
Basal Activity (CCR-3 receptor [2]): 33,177
B2: wild-type CCR-3: wild-type CC chemokine receptor 3 (CCR-3), G protein-coupled receptor, SEQ ID NO: 2 (protein, UniProt P51677 1-355, looked up)
C-C chemokine receptor type 3: T1 sequence (P51677 1-355 Y235E) with E235Y
